Laboratory results as given in publication PMC10041117.

Biological target: F-actin of the thin filaments in NRCs, labelled with Phalloidin-iFluor 514 (rat (endogenous in neonatal rat cardiomyocytes)) (UniProt P68035)
Experiment: FRET or BRET; FRET-FLIM (time-domain, TCSPC, donor lifetime) in NRCs demembranated in relaxing solution with 25 μmol/L nitro-blebbistatin and fixed with paraformaldehyde; mTFP donor, mVenus or Phalloidin-iFluor514 acceptor; cells untreated or incubated with isoproterenol before skinning

Chain of mTFP-cMyBP-C (cardiac myosin binding protein-C with mTFP conjugated to its N terminus) (Q14896 whole entry): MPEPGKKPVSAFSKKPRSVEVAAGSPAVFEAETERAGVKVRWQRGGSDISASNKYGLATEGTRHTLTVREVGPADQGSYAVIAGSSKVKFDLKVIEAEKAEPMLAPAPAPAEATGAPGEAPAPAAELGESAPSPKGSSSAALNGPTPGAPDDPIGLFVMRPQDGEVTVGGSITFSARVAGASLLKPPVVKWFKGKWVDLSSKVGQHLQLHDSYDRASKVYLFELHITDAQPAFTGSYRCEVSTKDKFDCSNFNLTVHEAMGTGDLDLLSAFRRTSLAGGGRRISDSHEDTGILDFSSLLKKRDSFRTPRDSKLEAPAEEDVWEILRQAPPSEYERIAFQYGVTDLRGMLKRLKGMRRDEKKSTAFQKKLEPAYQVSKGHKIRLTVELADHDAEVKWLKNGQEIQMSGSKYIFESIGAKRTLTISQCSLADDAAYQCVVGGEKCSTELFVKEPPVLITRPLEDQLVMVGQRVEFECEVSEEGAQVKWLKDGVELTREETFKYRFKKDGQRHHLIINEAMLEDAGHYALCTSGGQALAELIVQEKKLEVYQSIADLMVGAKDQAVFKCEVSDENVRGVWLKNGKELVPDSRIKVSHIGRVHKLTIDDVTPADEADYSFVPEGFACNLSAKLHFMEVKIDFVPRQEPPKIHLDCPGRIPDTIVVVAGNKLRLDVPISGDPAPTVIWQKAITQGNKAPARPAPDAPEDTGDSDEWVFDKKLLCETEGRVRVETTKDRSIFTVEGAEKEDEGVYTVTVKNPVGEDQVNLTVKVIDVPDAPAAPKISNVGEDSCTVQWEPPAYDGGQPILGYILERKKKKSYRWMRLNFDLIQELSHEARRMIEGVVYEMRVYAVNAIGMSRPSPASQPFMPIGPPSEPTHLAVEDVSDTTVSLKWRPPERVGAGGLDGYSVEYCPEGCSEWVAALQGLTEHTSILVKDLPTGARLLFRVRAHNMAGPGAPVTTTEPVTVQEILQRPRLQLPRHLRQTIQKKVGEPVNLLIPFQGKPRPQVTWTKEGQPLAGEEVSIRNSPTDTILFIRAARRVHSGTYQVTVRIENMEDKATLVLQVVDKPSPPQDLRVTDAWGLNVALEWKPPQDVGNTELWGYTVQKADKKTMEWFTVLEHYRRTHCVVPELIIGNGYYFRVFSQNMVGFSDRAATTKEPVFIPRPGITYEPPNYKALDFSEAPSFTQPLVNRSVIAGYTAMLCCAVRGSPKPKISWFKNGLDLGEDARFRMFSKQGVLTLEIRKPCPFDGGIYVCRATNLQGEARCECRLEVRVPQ

mTFP-cMyBP-C (cardiac myosin binding protein-C with mTFP conjugated to its N terminus) (from UniProt Q14896 1-1274) (natural protein)
FRET efficiency <E%>: 12%
